Target: MPP1 (proaerolysin with the furin site replaced by the PSA substrate HSSKLQ) (Aeromonas hydrophila) (UniProt P09167)
Assay: cell-based or functional assay

Question: What does the source list for “Prostate-specific antigen (PSA), also referred as hK3 (from UniProt P07288 25-261) (enzyme)”?
Answer: LD50 (cell killing, Trypan Blue exclusion, PSA-producing LNCaP cells, 24 h): 100 pM; fold difference in toxicity, PSA-producing versus non-PSA producing cells: 500 fold

Source: patent US20100233191A1
